Among the data in US20260028403A1 (Zymeworks, published 2026) are Kd, koff and kon values, retold here.

The target in experiment [1] is T1, Recombinant human/cynomolgus/rhesus macaque CD28 mouse IgG2a Fc fusion protein (Acro Biosystems) (human/cynomolgus/rhesus macaque, UniProt P10747 19-152).
T1 construct: bought; also called huCD28
Kind of experiment: SPR Biacore T200, CD28-mIgG2a Fc on CM5, construct injected, 1:1 model.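 Also: fc fusion captured by amine coupling, run at 25 °C in HEPES buffer pH 7.4, association 140-500 s then dissociation 600-1200 s, values averaged over three independent runs.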
Protocol: All SPR binding experiments were carried out using a BiacoreT200 instrument at 25° C. with 10 mM HEPES, 150 mM NaCl, 3 mM EDTA, and 0.05% Tween 20 at pH 7.4. Recombinant human/cynomolgus/rhesus macaque CD28 mouse IgG2a Fc fusion protein (Acro Biosystems) was covalently immobilized on CM5 sensor chips by amine coupling. Purified antibody constructs to be tested were injected on the sensor chip at 30 μL/min for 140-500 s following a dissociation for 600-1200 s. Resultant kₒₙ, koff and KD values were determined from fitting the sensorgrams using the 1:1 binding model with reported values as the mean of three independent runs.

Experiment [2] deals with T2, Recombinant human CD3 epsilon/delta heterodimer, his tag protein (Acro Biosystems) (human, UniProt P07766 23-126; P04234 22-105).
T2 construct: bought
The experiment in a line: SPR Biacore T200, CD3 e/d-his on CM5, construct injected, 1:1 model.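 Also: measured at 25 °C in HEPES-buffered saline with EDTA and Tween 20 at pH 7.4, values are means of three independent runs.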

B1: v37639 (trispecific antibody, human IgG1, kappa, L234A L235A)
heavy 1: not shown
heavy 2: QVQLVESGGGLVQPGGSLRLSCSVSGIDLSSNPMIWVRQAPGKGLQYIGIIDTDGSTYYADWAKGRFTISKDSTTVYLQINSPRAEDTAVYYCARRLHGSSNGYYDDLWGQGTLVTVSSGGGGSGGGGSGGGGSGGGGSDGQMTQSPSSVSASVGDRVTITCQASQSIYSYLSWYQQKPGQRPKLLIYKASTLASGVPSRFSGSGSGTDFTLTISSVQPEDFATYYCQQGYTVTNVDKNTFGGGTKVEIKAAEPKSSDKTHTCPPCPAPEAAGGPSVFLFPPKPKDTLMISRTPEVTCVVVSVSHEDPEVKFNWYVDGVEVHNAKTKPREEQYNSTYRVVSVLTVLHQDWLNGKEYKCKVSNKALPAPIEKTISKAKGQPREPQVYVLPPSRDELTKNQVSLLCLVKGFYPSDIAVEWESNGQPENNYLTWPPVLDSDGSFFLYSKLTVDKSRWQQGNVFSCSVMHEALHNHYTQKSLSLSPG
light: DIQMTQSPSSLSASVGDRVTITCRASESVEYYVTSLMQWYQQKPGKAPKLLIYAASNVDSGVPSRFSGSGSGTDFTLTISSLQPEDIATYYCQQSRKVPFTFGGGTKVEIKRTVAAPSVFIFPPSDEQLKSGTASVVCLLNNFYPREAKVQWKVDNALQSGNSQESVTEQDSKDSTYSLSSTLTLSKADYEKHKVYACEVTHQGLSSPVTKSFNRGECGGGGSGNFMLTQPHSVSESPGKTVTISCKRNTGNIGSNYVNWYQQHEGSSPTTIIYRNDKRPDGVSDRFSGSIDRSSKSASLTISNLKTEDEADYFCQSYSSGFIFGGGTKLTVLGGGGSGGGGSGGGGSGGGGSEVQLVESGGGLVQPGGSLRLSCAASGVTFNYYGMSWIRQAPGKGLEWVASITSSGGRIYYPDSVKGRFTISRENTQKTLYLQMNSLRAEDTAVYYCTLDGRDGWVAYWGQGTLVTVSS
notes: Het Fc, FcKO; also called Cldn18.2xCD28xCD3 trispecific
Consider B1, for which, in experiment [1], the dissociation constant (Kd) is 23.9 nM, the off-rate (koff) was found to be 0.00201 s⁻¹ and the on-rate (kon) turned out to be 84100 M⁻¹ s⁻¹. Further, in experiment [2], the Kd amounted to 492 nM, the koff amounted to 0.0144 s⁻¹ and the kon was found to be 29200 M⁻¹ s⁻¹.

B2: v37636 (trispecific antibody, human IgG1, lambda, L234A L235A)
heavy 1: QVQLVESGGGLVQPGGSLRLSCSVSGIDLSSNPMIWVRQAPGKGLQYIGIIDTDGSTYYADWAKGRFTISKDSTTVYLQINSPRAEDTAVYYCARRLHGSSNGYYDDLWGQGTLVTVSSGGGGSGGGGSGGGGSGGGGSDGQMTQSPSSVSASVGDRVTITCQASQSIYSYLSWYQQKPGQRPKLLIYKASTLASGVPSRFSGSGSGTDFTLTISSVQPEDFATYYCQQGYTVTNVDKNTFGGGTKVEIKGGGGSGEVQLVESGGGLVQPGGSLRLSCAASGVTFNYYGMSWIRQAPGKGLEWVASITSSGGRIYYPDSVKGRFTISRENTQKTLYLQMNSLRAEDTAVYYCTLDGRDGWVAYWGQGTLVTVSSASTKGPSVFPLAPSSKSTSGGTAALGCLVKDYFPEPVTVSWNSGALTSGVHTFPAVLQSSGLYSLSSVVTVPSSSLGTQTYICNVNHKPSNTKVDKKVEPKSCDKTHTCPPCPAPEAAGGPSVFLFPPKPKDTLMISRTPEVTCVVVSVSHEDPEVKFNWYVDGVEVHNAKTKPREEQYNSTYRVVSVLTVLHQDWLNGKEYKCKVSNKALPAPIEKTISKAKGQPREPQVYVYPPSRDELTKNQVSLTCLVKGFYPSDIAVEWESNGQPENNYKTTPPVLDSDGSFALVSKLTVDKSRWQQGNVFSCSVMHEALHNHYTQKSLSLSPGGGGGSGDIQMTQSPSSLSASVGDRVTITCRASESVEYYVTSLMQWYQQKPGKAPKLLIYAASNVDSGVPSRFSGSGSGTDFTLTISSLQPEDIATYYCQQSRKVPFTFGGGTKVEIKGGGGSGGGGSGGGGSGGGGSQVQLQESGPGLVKPSETLSLTCAVSGFSLTSYGVHWIRQPPGKGLEWLGVIWPGGGTNFNSALMSRLTISEDTSKNQVSLKLSSVTAADTAVYYCARDRAYGNYLYAMDYWGQGTLVTVSS
heavy 2: EPKSSDKTHTCPPCPAPEAAGGPSVFLFPPKPKDTLMISRTPEVTCVVVSVSHEDPEVKFNWYVDGVEVHNAKTKPREEQYNSTYRVVSVLTVLHQDWLNGKEYKCKVSNKALPAPIEKTISKAKGQPREPQVYVLPPSRDELTKNQVSLLCLVKGFYPSDIAVEWESNGQPENNYLTWPPVLDSDGSFFLYSKLTVDKSRWQQGNVFSCSVMHEALHNHYTQKSLSLSPG
light: NFMLTQPHSVSESPGKTVTISCKRNTGNIGSNYVNWYQQHEGSSPTTIIYRNDKRPDGVSDRFSGSIDRSSKSASLTISNLKTEDEADYFCQSYSSGFIFGGGTKLTVLGQPKAAPSVTLFPPSSEELQANKATLVCLISDFYPGAVTVAWKADSSPVKAGVETTTPSKQSNNKYAASSYLSLTPEQWKSHRSYSCQVTHEGSTVEKTVAPTECS
notes: second heavy chain is Fc only; Het Fc, FcKO; also called Cldn18.2xCD3xCD28 trispecific
Consider B2, for which, in experiment [1], the Kd stood at 434 nM, the dissociation rate constant (koff) was 0.0132 s⁻¹ and the kon came out at 30400 M⁻¹ s⁻¹. Also, in experiment [2], the Kd worked out at 160 nM, the koff is 0.021 s⁻¹ and the kon worked out at 134000 M⁻¹ s⁻¹.

B3: v37637 (trispecific antibody, human IgG1, lambda, L234A L235A)
heavy 1: not shown
heavy 2: QVQLVESGGGLVQPGGSLRLSCSVSGIDLSSNPMIWVRQAPGKGLQYIGIIDTDGSTYYADWAKGRFTISKDSTTVYLQINSPRAEDTAVYYCARRLHGSSNGYYDDLWGQGTLVTVSSGGGGSGGGGSGGGGSGGGGSDGQMTQSPSSVSASVGDRVTITCQASQSIYSYLSWYQQKPGQRPKLLIYKASTLASGVPSRFSGSGSGTDFTLTISSVQPEDFATYYCQQGYTVTNVDKNTFGGGTKVEIKGGGGSGEVQLVESGGGLVQPGGSLRLSCAASGVTFNYYGMSWIRQAPGKGLEWVASITSSGGRIYYPDSVKGRFTISRENTQKTLYLQMNSLRAEDTAVYYCTLDGRDGWVAYWGQGTLVTVSSASTKGPSVFPLAPSSKSTSGGTAALGCLVKDYFPEPVTVSWNSGALTSGVHTFPAVLQSSGLYSLSSVVTVPSSSLGTQTYICNVNHKPSNTKVDKKVEPKSCDKTHTCPPCPAPEAAGGPSVFLFPPKPKDTLMISRTPEVTCVVVSVSHEDPEVKFNWYVDGVEVHNAKTKPREEQYNSTYRVVSVLTVLHQDWLNGKEYKCKVSNKALPAPIEKTISKAKGQPREPQVYVLPPSRDELTKNQVSLLCLVKGFYPSDIAVEWESNGQPENNYLTWPPVLDSDGSFFLYSKLTVDKSRWQQGNVFSCSVMHEALHNHYTQKSLSLSPG
light: NFMLTQPHSVSESPGKTVTISCKRNTGNIGSNYVNWYQQHEGSSPTTIIYRNDKRPDGVSDRFSGSIDRSSKSASLTISNLKTEDEADYFCQSYSSGFIFGGGTKLTVLGQPKAAPSVTLFPPSSEELQANKATLVCLISDFYPGAVTVAWKADSSPVKAGVETTTPSKQSNNKYAASSYLSLTPEQWKSHRSYSCQVTHEGSTVEKTVAPTECS
notes: Het Fc, FcKO; also called Cldn18.2xCD3xCD28 trispecific
With B3, in experiment [1], the dissociation constant Kd turned out to be 61.4 nM, the koff stood at 0.00692 s⁻¹ and the kon was 113000 M⁻¹ s⁻¹. Also, in experiment [2], the Kd stood at 106 nM, the koff was found to be 0.0129 s⁻¹ and the association rate constant (kon) came out at 121000 M⁻¹ s⁻¹.
